From the supplement of paper PMC9170038

System: MS2 coat protein
Assay: apparent KD of MS2 coat protein; higher = weaker reporter binding
Details: Eterna round: R107
Description: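 RNA-MaP round R107: designed RNA switches with theophylline, tryptophan, arginine or FMN aptamers are transcribed on-chip within common flanks. They are titrated with SNAP-549-labelled MS2 coat protein in RNA-MaP buffer (100 mM Tris pH 7.5, 80 mM KCl, 4 mM MgCl2), without ligand or with the indicated ligand. Median apparent KD per design.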

[1] = input ligand: theophylline 20 uM
[2] = input ligand: tryptophan 2.4 mM
[3] = input ligand: theophylline 2 mM

Sequence	apparent KD of MS2 coat protein (input ligand: arginine 13.2 mM) [µM]	apparent KD of MS2 coat protein [1] [µM]	apparent KD of MS2 coat protein [2] [µM]	apparent KD of MS2 coat protein (input ligand: none) [µM]	apparent KD of MS2 coat protein [3] [µM]
ACGACGCAUAGUGAUACCAGUAGAACAUGAGGAUCACCCAUGUCUGUUAUGUACAAAUACUGCCCUUGGCAGCACUAUGCGUCAG [SSTheo B #5]	0.00985	0.0121	0.0116		
AGCUCAUAGAGUGAUACCAGACUACAUGAGGAUCACCCAUGUUACUUUUAAAUAUCAUUUGUCCCUUGGCAGCACAUGAAGAGCA [JR_Nu_ExcTheophyB_Sub017]	0.0183	0.0185	0.0138		
GCUAGCCGAAAGGCUAGCAAGGCUACAGAAGGAGCGUGCGAAAGCACAGGUAGGUCGCUGAGCUUGAGGAUCACCCAAGUUGCCU [SSAA - Alter Amptam #1 V+V2]	0.0262	0.0572	0.064	0.0667	0.0486
CCUCAAUAGACGGCCGCCACUGAAACAUGCGGAUACAUGAGGAUCACCCAUGUGGGUGUGUUACGCAGGACCGGGUCAAGACCCG [#12 Same State - Tryptophan B]	0.115	0.316			0.583
AAUGUAAUAGUCGUACUCUUACACUGAGAAGGAGCGCGAAAGUUCGCAGGUAGGUCGCUCAGUUAUACAUGAGGAUCACCCAUGU [Bebemaata]	0.0241	0.0283	0.0241	0.0248	0.0279
UGUAUGUGAUCUGAUACCAGUCCAACUGGUAAACCAUGAGGAUCACCCAUGGAAAAUUGGGACCCUUGGCAGCAGAUCGCAUACU	0.0965	0.236	0.322		0.0209
AAAAUCCUACCUGAGGAUCACCCAGGUGAAGGAGCGCCCGAAAGGGCAGGUAGGUCGCACCUGAGGAUCACCCUGGUAAACCUAA [ArgEX 22 #DoubleMS2 #OpenEnded]	0.0309	0.0476	0.0406	0.044	0.0568
UCACAUGAGGAUCACCCAUGUCCAGGUGAAGGAGCGAUUAGGGAGUCAGGUAGGUCGCACCACAUGAGGAUCACCCAUGUGCCUG [EAA NP+V+V2 #8 DOUBLE]	0.0184	0.0275	0.0241	0.0228	0.0254
AUCCACAGCCGAAGGAGCGCAGUAGGAUGACAUGAGGAUCACCCAUGUGUGUGAUGUGGAUUGCAGGUAGGUCGCGGAGUGGGUU [Exclusion - Arginine B (Freestyle 8)]	0.0439	0.0725	0.0726	0.0717	0.0736
ACAUGAGGAUCACCCAUGUGGCGUCUUGAUACCAGACGAGAAGUAGUCCCUUGGCAGCAAAUACGUGAGGAUCACACAUGUGCGA [cccmullin3]	0.0244	0.0309	0.029		
GGGCAAGAGGGAAGGAGCGUCGGCUGAGUAACAUGAGGAUCACCCAUGUAGCACAUAGUGUGGCAGGUAGGUCGCCCUCUGCCCU [SS-ArgB7]	0.0175	0.0169	0.0132	0.0113	0.0137
GGUUCAUCGUCGGCCGCCACUCACAUGAGGUGGAGCUGUAAACAUGAGGAUCACCCAUGUUGUUAGAGGACCGGGACGUGACGGC [theeternabot_exclusion_MS2_Trp_B_6]	0.0255	0.0434			0.0421
UCGCCCAGAAAGGAUUCCUGGGAUAUGGAAGGAGCGCUGAUGCCAGCAGGUAGGUCGCCAACGGACAUGAGGAUCACCCAUGUAC [Same State - Arginine A (Freestyle 7)]	0.0154	0.0257	0.018	0.0173	0.0217
GUCAGUGACUGAAGGAGCGACAUGAGGAUCACCCAUGUCUCCCGUUAUGGGAGUUCCUUAGGUCAGGUAGGUCGCAGUCACUGAC [#1 Exclusion - Arginine B Attempt #29 (Inspired by Omei)]	0.174	0.163	0.0957	0.123	0.188
UAGUUAGCGGCGGCCGCCACUCGAGAUAUAACAUGAUAUCAUAACAUGAGGAUCACCCAUGUCACGAGGACCGGGCCGAUCUUCA [Same State Typptophan B GF6]	0.0279	0.102	0.0494	0.0485	0.163
GUAGGUCACCUCAUGAGACCUACCCUGGAAGGAGCGAGCGAAAGCUCAGGUAGGUCGCCAGAAACAUGAGGAUCACCCAUGUAAU [(A)''-(M)'-(A)'-(Arg1)-(Arg2)-(M1)-(M2)_Design3]	0.0294	0.15	0.0446	0.0511	0.19
GCGGUCCACUUGGAUACCAGCAGAUUAAUAAACAUGAGGAUCACCCAUGUAAGCGCCUUGUGCCCUUGGCAGCCAGGGUGGUCAG [theeternabot_sameState_MS2_Theo_B_50]	0.0555	0.136	0.0884		
ACGUUUUAGUCGGCCGCCACUGUUUUCAUGUUCAACAUGAGGAUCACCCAUGUACCUUUUUUUAUCAGGACCGGGACGUAAUAGA [JR_SSTryptoB_Sub004]	0.0477	0.102			0.0773
GGUGGCGGGACUGAUACCAGCCACCACCGAUAGACCACAUGAGGAUCACCCAUGUUGGGUGGCCCUUGGCAGCAGUCUUGCGGCG [#1 Same State - Theophylline B Attempt #15 (HarryS)]	0.0855	0.491	1.29	0.527	0.0815
GCUCACAUGAGGAUCACCCAUGUACGUCCGCGAGGACCGGUACGGCCGCCACUCGUGUUAGCUUCAAACUUGUUAGUGUUAAACA [Atleerge]	0.0313	0.0534			0.0684
AGAUUCGACACGGCCGCCACUCGUGACGGAUUUCCGAGUGUCGAACAUGAGGAUCACCCAUGUACGAGGACCGGGUGUUGAGUCU [XTryp B #13]	0.0396	0.0867			0.0904
GUCGCUGAGGGAAGGAGCGUGAAGACAUGAGGAUCACCCAUGUAGAGGCGCCGAAGGCGUUCGCAGGUAGGUCGCCCUCAGUGAC [#1 Same State - Arginine B Attempt #22 (HarryS)]	0.0424	0.0232	0.0168	0.0193	0.0167
UGUAUGGACUGAAGGAGCGGAAAAUAAAUCUGAGGAUCACCCAGGUAAUAGGCGAAAGCCAUCCAGGUAGGUCGCAGUCCAUACU	0.0569	0.101	0.105	0.0867	0.133
ACACAUGAGGAUCACCCAUGUAAAGUUGAAGGAGCGAUCAUUAGGUCAGGUAGGUCGCAGCACAUGAGGAUCACCCAUGUCGUGA [DOUBLE!!! :-D #2]	0.0313	0.0855	0.0869	0.0961	0.0737
AUGUAGAACCGAAGGAGCGCGAUAACAUGAGGAUCACCCAUGUAGUUUUGGUGGCUUCGAUCGCAGGUAGGUCGCGGAAGUAGUA [#03 Exclusion - Arginine B]	0.0379	0.0976	0.0554	0.0359	0.077
AUACAUGAGGAUCACCCAUGUGAUGGCCGGCGAGGACCGGUACGGCCGCCACUCGUGAUCCGUCCUGAAAGCAAAGCUCCCAGCA [Lalazare]	0.0251	0.244			0.178
UGACAGAUAACCGCUGGUGCUCUUGAGUUGCGAGGACCGGUACGGCCGCCACUCGACAACAUGAGGAUCACCCAUGUUGCGGGUC [Soleeror]	0.0383	0.0895	0.0851	0.146	0.146
UUCACAUGAUCUGAAUAUACAGAAAAGAAACGAGGACCGGUACGGCCGCCACUCGUGCCGGAAACAUGAGGAUCACCCAUGUGUU [AK1.3 Exclusion TrypA mod IceBolt]	0.0197	0.0285			0.0262
UCGCUCUGGGUGAGAUCCGGAGAUAUGGAAGGAGCGCUGAUGCCAGCAGGUAGGUCGCCAACGGACAUGAGGAUCACCCAUGUAC [Same State - Arginine A (Freestyle 10)]	0.025	0.0642	0.0398	0.0524	0.0345
